“And” between values parts separate entries of the source, which are not always exact repeats. Equal entries are not always repeated.

The data set concerns the molecule itself. Briefly: SEC; Superose 6 Increase 3.2/300; freshly purified recombinant protein concentrated up to 1 mg/ml; absorbance at 280 nm. In general terms: In gel filtration, larger molecules generally elute earlier.

B1: recombinant BAZ2AN (domain or fragment, UniProt Q91YE5 1-744, looked up)
chain: MEMEANDHFNFTGLPPAPAASGLKPSPSSGEGLYTNGSPMNFPQQGKSLNGDVNVNGLSTVSHTTTSGILNSAPHSSSTSHLHHPNVAYDCLWNYSQYPSANPGNNLKDPPLLSQFPGGQYPLNGILGGNRQPSSPSHNTNLRAGSQEFWANGTQSPMGLNFDSQELYDSFPDQNFEVMPNGPPSFFTSPQTSPMLGSSIQTFAPSQDVSSDIHPDEAAEKELTSVVAENGTGLVGSLELEEEQPELKMCGYNGSVSSVESLHQEVSVLVPDPTVSCLDDPSHLPDQLEDTPILSEDSLEPFDSLAAEPVSGSLYGIDDAELMGAEDKLPLEGNPVISALDCPALSNANAFSLLADDSQTSASIFVSPTSPPVLGESVLQDNSFGLNSCSDSEQEEIETQSSNFQRPLTEPAPDQPPSTQLHPAVSPTASPAASLTASAEISPAVSPVASSPVPPEVFVAVSPASSPALPAISLEASMTTPVTSPQGSPEPSPAAAFQTVSPARKNVSSAPKARADREETTGGAVAVSGSGDVLKRRIATPEEVRLPLQHGWRREVRIKKGSHRWQGETWYYGPCGKRMKQFPEVIKYLSRNVVHSVRREHFSFSPRMPVGDFFEERDTPEGLQWVQLSAEEIPSRIQAITGKRGRPRNNEKAKNKEVPKVKRGRGRPPKIKMPELLNKTDNRLPKKLETQEILSEDDKAKMTKNKKKMRQKVQRGESQTPVQGQARNKRKQDTKSLKQKDTKK
notes: BAZ2A (TIP5) N-terminal region, aa 1-744; also called BAZ2AN-Hist; source: E. coli BL21(DE3), purified (Glutathione Sepharose, PreScission cleavage, HisTrap)
As a reminder, the stoichiometry N is the number of molecules, sites or subunits per partner or assembly. For B1, the “stoichiometry N” value was 4 units and 6 units.

(Values after PMC11065421, “An RNA-dependent and phase-separated active subnuclear compartment safeguards repressive chromatin domains” (Molecular Cell, 2024).)
